Earlier results in article PMC3859915.

Target: IL-15 (Mus musculus) (UniProt P48346)
Sequence of UniProt P48346 (P48346 49-162): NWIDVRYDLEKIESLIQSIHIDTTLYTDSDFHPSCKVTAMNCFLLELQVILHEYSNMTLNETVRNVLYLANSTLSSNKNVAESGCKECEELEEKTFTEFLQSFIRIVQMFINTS

Kd: 0.014 nM
Substance: IL-15Rα (from UniProt Q60819)
